{"source": "patent CN115594758A", "about": "(NANJING JINGZHUN BIOTECHNOLOGY CO LTD, dated 2023)", "binders": {"B1": {"name": "纳米抗体SA4 (VHH)", "VHH": "QVQLQESGGGLVQPGGSLRLSCAASGSFFEFGTVGWFRQAPGKQRELVSRITGNDHRYYADSVKGRFTISRDNDETTVYLQMDSLKPEDTAIYHCNILEGQRWSNYWGQGTQVTVSH"}}, "target": "SARS-CoV-2假病毒 (病毒包膜糖蛋白 on MLV pseudovirus) (SARS-CoV-2, UniProt P0DTC2 14-1273)", "test": "cell-based or functional assay"}
{"binder": "B1", "values": [{"measurement": "假病毒中和实验 IC50 (GFP by flow cytometry, VeroE6-hACE2 cells)", "value": 12.7, "unit": "nM"}]}
